# Assay results from PMC12271210.
# pKd: −log10 of the molar value.
# Columns and labels:
# [1] = target: classic PRRSV N protein (porcine reproductive and respiratory syndrome virus (classic PRRSV)); assay: BLI; SA probe with immobilised N protein (10 μg/ml, immobilization height 2.2 nm), KPNA1 in solution (gradient 1.47–4.97 μM or 0.87–9.95 μM); 30°C, PBS + 0.2% BSA; 1:1 binding model; ForteBio Octet
# [2] = target: HP-PRRSV N protein (porcine reproductive and respiratory syndrome virus (HP-PRRSV)); assay: as above
# KPNB1 = assay: BLI; APS probe with immobilised KPNB1 (10 μg/ml, to saturation), N protein in solution (gradient 0.61–2.07 μM or 4.17–8.89 μM); 30°C, PBS + 0.2% BSA; 1:1 binding model; ForteBio Octet
Substance,pKd [1],koff [1],kon [1],pKd [2],koff [2],kon [2],pKd (KPNB1),koff (KPNB1),kon (KPNB1)
KPNA1 (receptor),6.52,0.000619 s⁻¹,2030 M⁻¹ s⁻¹,6.04,0.000446 s⁻¹,490 M⁻¹ s⁻¹,–,–,–
HP-PRRSV N protein (natural protein),–,–,–,–,–,–,5.67,0.00737 s⁻¹,3450 M⁻¹ s⁻¹
classic PRRSV N protein (natural protein),–,–,–,–,–,–,6.53,0.00179 s⁻¹,6110 M⁻¹ s⁻¹
